In US20230265151A1, “GIP/GLP1 CO-AGONIST COMPOUNDS” (priority 2020, published 2023):
Where a chain is given by its changes, count along the chain named.

T1: human GIP receptor (human, UniProt P48546 22-466)
T1 sequence (looked up): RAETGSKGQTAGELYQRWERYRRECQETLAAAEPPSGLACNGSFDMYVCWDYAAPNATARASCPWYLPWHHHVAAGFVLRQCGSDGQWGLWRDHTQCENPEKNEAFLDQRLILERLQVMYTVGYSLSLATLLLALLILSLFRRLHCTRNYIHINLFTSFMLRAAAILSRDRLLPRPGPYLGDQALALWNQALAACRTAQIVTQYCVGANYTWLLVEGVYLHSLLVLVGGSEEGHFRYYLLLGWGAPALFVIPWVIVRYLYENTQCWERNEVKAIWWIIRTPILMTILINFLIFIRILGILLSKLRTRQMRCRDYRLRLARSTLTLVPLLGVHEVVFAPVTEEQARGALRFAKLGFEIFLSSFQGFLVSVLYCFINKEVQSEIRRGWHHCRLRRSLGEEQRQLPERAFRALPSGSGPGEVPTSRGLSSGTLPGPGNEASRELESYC

B1: Example 29 (peptide)
peptide: YXEGTXTSDKSIXLDXKAQXEFIXXLIEGGPSSGAPPPS
modifications: Aib2, αMeF(2F)6, αMeL13, Orn16, Aib20, D-Glu24, αMeY25, K10 and K17: K(AEEA2-(γ-Glu)-CO-(CH2)14-CH3), C-terminal NH2
B2: Example 4 (peptide)
peptide: B1 peptide with K10X, P31K
modifications: Aib2, αMeF(2F)6, 4Pal10, αMeL13, Orn16, Aib20, D-Glu24, αMeY25, K17 and K31: K(AEEA2-(γ-Glu)-(4-(4-tert-butylphenyl)butanoyl)), C-terminal NH2
B3: Example 39 (peptide)
peptide: B1 peptide with K10X, P31K
modifications: Aib2, αMeF(2F)6, 4Pal10, αMeL13, Orn16, Aib20, D-Glu24, αMeY25, K17 and K31: K((εK)-(γ-Glu)-(γ-Glu)-CO-(CH2)12-CO2H), C-terminal NH2
B4: Example 51 (peptide)
peptide: B1 peptide with K10X, P31K
modifications: Aib2, αMeF(2F)6, αMeL10, αMeL13, Orn16, Aib20, D-Glu24, αMeY25, K17 and K31: K(AEEA2-(γ-Glu)-CO-(CH2)12-CO2H), C-terminal NH2
B5: Example 49 (peptide)
peptide: B1 peptide with K10Y, S11X, P31K
modifications: Aib2, αMeF(2F)6, αMeS11, αMeL13, Orn16, Aib20, D-Glu24, αMeY25, K17 and K31: K(AEEA2-(γ-Glu)-CO-(CH2)12-CO2H), C-terminal NH2
B6: Example 32 (peptide)
peptide: B1 peptide with K10X, X25K
modifications: Aib2, αMeF(2F)6, 4Pal10, αMeL13, Orn16, Aib20, D-Glu24, K17 and K25: K(AEEA2-(γ-Glu)-CO-(CH2)14-CH3), C-terminal NH2
B7: Example 40 (peptide)
peptide: B1 peptide with K10X, P31K
modifications: Aib2, αMeF(2F)6, 4Pal10, αMeL13, Orn16, Aib20, D-Glu24, αMeY25, K17 and K31: K((εK)-(εK)-(γ-Glu)-CO-(CH2)12-CO2H), C-terminal NH2
B8: Example 2 (peptide)
peptide: B1 peptide with K10X, P31K
modifications: Aib2, αMeF(2F)6, 4Pal10, αMeL13, Orn16, Aib20, D-Glu24, αMeY25, K17 and K31: K(AEEA2-(γ-Glu)-(10-(4-carboxyphenoxy)decanoyl)), C-terminal NH2
B9: Example 38 (peptide)
peptide: B1 peptide with K10X, P31K
modifications: Aib2, αMeF(2F)6, 4Pal10, αMeL13, Orn16, Aib20, D-Glu24, αMeY25, K17 and K31: K((εK)-(γ-Glu)-CO-(CH2)12-CO2H), C-terminal NH2
B10: Example 46 (peptide)
peptide: B1 peptide with K10X, P31K
modifications: Aib2, αMeF6, 4Pal10, αMeF13, Orn16, Aib20, D-Glu24, αMeY25, K17 and K31: K(AEEA2-(γ-Glu)-CO-(CH2)12-CO2H), C-terminal NH2
B11: Example 33 (peptide)
peptide: B1 peptide with K10X, P31K
modifications: Aib2, αMeF(2F)6, 4Pal10, αMeL13, Orn16, Aib20, D-Glu24, αMeY25, K17 and K31: K(AEEA2-(εK)-CO-(CH2)12-CO2H), C-terminal NH2
B12: Example 47 (peptide)
peptide: B1 peptide with K10X, F22X, P31K
modifications: Aib2, αMeF6, 4Pal10, αMeL13, Orn16, Aib20, αMeF22, D-Glu24, αMeY25, K17 and K31: K(AEEA2-(γ-Glu)-CO-(CH2)12-CO2H), C-terminal NH2
B13: Example 35 (peptide)
peptide: B1 peptide with K10X, P31K
modifications: Aib2, αMeF(2F)6, 4Pal10, αMeL13, Orn16, Aib20, D-Glu24, αMeY25, K17 and K31: K(AEEA-(εK)-(γ-Glu)-CO-(CH2)12-CO2H), C-terminal NH2
B14: Example 48 (peptide)
peptide: B1 peptide with K10X, P31K
modifications: Aib2, αMeF6, 4Pal10, αMeL13, Orn16, Aib20, D-Glu24, αMeF25, K17 and K31: K(AEEA2-(γ-Glu)-CO-(CH2)12-CO2H), C-terminal NH2
B15: Example 44 (peptide)
peptide: B1 peptide with K10X, P31K
modifications: Aib2, αMeF6, 4Pal10, αMeL13, Orn16, Aib20, D-Glu24, αMeY25, K17 and K31: K(AEEA2-(γ-Glu)-CO-(CH2)12-CO2H), C-terminal NH2
B16: Example 37 (peptide)
peptide: B1 peptide with K10X, P31K
modifications: Aib2, αMeF(2F)6, 4Pal10, αMeL13, Orn16, Aib20, D-Glu24, αMeY25, K17 and K31: K((εK)-AEEA2-(γ-Glu)-CO-(CH2)12-CO2H), C-terminal NH2
B17: Example 41 (peptide)
peptide: B1 peptide with K10X, P31K
modifications: Aib2, αMeF(2F)6, 4Pal10, αMeL13, Orn16, Aib20, D-Glu24, αMeY25, K17 and K31: K((γ-Glu)-AEEA2-CO-(CH2)12-CO2H), C-terminal NH2
B18: Example 56 (peptide)
peptide: B1 peptide with K10X, P31K
modifications: Aib2, αMeF(2F)6, 1Nal10, αMeL13, Orn16, Aib20, D-Glu24, αMeY25, K17 and K31: K(AEEA2-(γ-Glu)-CO-(CH2)12-CO2H), C-terminal NH2
B19: Example 3 (peptide)
peptide: B1 peptide with K10X, P31K
modifications: Aib2, αMeF(2F)6, 4Pal10, αMeL13, Orn16, Aib20, D-Glu24, αMeY25, K17 and K31: K(AEEA2-(γ-Glu)-(4-(4-iodophenyl)butanoyl)), C-terminal NH2
B20: Example 55 (peptide)
peptide: B1 peptide with K10X, P31K
modifications: Aib2, αMeF(2F)6, Bip10, αMeL13, Orn16, Aib20, D-Glu24, αMeY25, K17 and K31: K(AEEA2-(γ-Glu)-CO-(CH2)12-CO2H), C-terminal NH2
B21: Example 45 (peptide)
peptide: B1 peptide with K10X, P31K
modifications: Aib2, αMeF6, αMeF10, αMeL13, Orn16, Aib20, D-Glu24, αMeY25, K17 and K31: K(AEEA2-(γ-Glu)-CO-(CH2)12-CO2H), C-terminal NH2
B22: Example 52 (peptide)
peptide: B1 peptide with K10X, P31K
modifications: Aib2, αMeF(2F)6, αMeV10, αMeL13, Orn16, Aib20, D-Glu24, αMeY25, K17 and K31: K(AEEA2-(γ-Glu)-CO-(CH2)12-CO2H), C-terminal NH2
B23: Example 50 (peptide)
peptide: B1 peptide with K10Y, S11X, P31K
modifications: Aib2, αMeF(2F)6, Aib11, αMeL13, Orn16, Aib20, D-Glu24, αMeY25, K17 and K31: K(AEEA2-(γ-Glu)-CO-(CH2)12-CO2H), C-terminal NH2
B24: Example 58 (peptide)
peptide: B1 peptide with K10X, P31K
modifications: Aib2, αMeF(2F)6, OMeY10, αMeL13, Orn16, Aib20, D-Glu24, αMeY25, K17 and K31: K(AEEA2-(γ-Glu)-CO-(CH2)12-CO2H), C-terminal NH2
B25: Example 54 (peptide)
peptide: B1 peptide with K10X, P31K
modifications: Aib2, αMeF(2F)6, Ac6c10, αMeL13, Orn16, Aib20, D-Glu24, αMeY25, K17 and K31: K(AEEA2-(γ-Glu)-CO-(CH2)12-CO2H), C-terminal NH2
B26: Example 42 (peptide)
peptide: B1 peptide with K10X, P31K
modifications: Aib2, αMeF(2F)6, 4Pal10, αMeL13, Orn16, Aib20, D-Glu24, αMeY25, K17 and K31: K((γ-Glu)-AEEA-CO-(CH2)12-CO2H), C-terminal NH2
B27: Example 36 (peptide)
peptide: B1 peptide with K10X, P31K
modifications: Aib2, αMeF(2F)6, 4Pal10, αMeL13, Orn16, Aib20, D-Glu24, αMeY25, K17 and K31: K((εK)-AEEA-(γ-Glu)-CO-(CH2)12-CO2H), C-terminal NH2
B28: Example 34 (peptide)
peptide: B1 peptide with K10X, P31K
modifications: Aib2, αMeF(2F)6, 4Pal10, αMeL13, Orn16, Aib20, D-Glu24, αMeY25, K17 and K31: K(AEEA2-(εK)-(γ-Glu)-CO-(CH2)12-CO2H), C-terminal NH2
B29: Example 53 (peptide)
peptide: B1 peptide with K10X, P31K
modifications: Aib2, αMeF(2F)6, Ac5c10, αMeL13, Orn16, Aib20, D-Glu24, αMeY25, K17 and K31: K(AEEA2-(γ-Glu)-CO-(CH2)12-CO2H), C-terminal NH2
B30: Example 57 (peptide)
peptide: B1 peptide with K10X, P31K
modifications: Aib2, αMeF(2F)6, 2Nal10, αMeL13, Orn16, Aib20, D-Glu24, αMeY25, K17 and K31: K(AEEA2-(γ-Glu)-CO-(CH2)12-CO2H), C-terminal NH2
B31: Example 43 (peptide)
peptide: B1 peptide with K10X, P31K
modifications: Aib2, αMeF(2F)6, 4Pal10, αMeL13, Orn16, Aib20, D-Glu24, αMeY25, K17 and K31: K(AEEA-(γ-Glu)-AEEA-CO-(CH2)12-CO2H), C-terminal NH2
B32: Example 30 (peptide)
peptide: B1 peptide with K10X, P31K
modifications: Aib2, αMeF(2F)6, 4Pal10, αMeL13, Orn16, Aib20, D-Glu24, αMeY25, K17 and K31: K(AEEA3-(γ-Glu)-CO-(CH2)12-CO2H), C-terminal NH2

target: T1, human GIP receptor; assay: cell-based or functional assay

Binder | EC50, cAMP [nM] | Emax, cAMP [%]
B1 | 0.00252 | 
B2 | 0.00962 | 
B3 | 0.0238 | 
B4 | 0.11 | 
B5 | 0.0205 | 91
B6 | 0.002 | 
B7 | 0.0116 | 
B8 | 0.0154 | 
B9 | 0.0155 | 
B10 | 0.0801 | 89.5
B11 | 0.00957 | 
B12 | 0.0138 | 
B13 | 0.0162 | 
B14 | 0.0182 | 
B15 | 0.0637 | 
B16 | 0.0211 | 

Binder | EC50, cAMP [nM] | Emax, cAMP [%]
B17 | 0.0108 | 
B18 | 0.0138 | 90.3
B19 | 0.0133 | 
B20 | 0.0207 | 
B21 | 0.0517 | 
B22 | 0.258 | 
B23 | 0.0168 | 94.7
B24 | 0.0158 | 89.2
B25 | 0.0675 | 113
B26 | 0.0103 | 
B27 | 0.0185 | 
B28 | 0.0148 | 
B29 | 0.0841 | 
B30 | 0.0135 | 
B31 | 0.0123 | 
B32 | 0.0175 | 

target: human GLP-1 receptor (human, UniProt P43220 24-463); assay: cell-based or functional assay

Binder | EC50, cAMP [nM] | Emax, cAMP [%]
B1 | 0.00468 | 100
B2 | 0.137 | 
B3 | 0.358 | 
B4 | 0.89 | 
B5 | 0.398 | 97.3
B6 | 0.0063 | 119
B7 | 0.279 | 
B8 | 1.14 | 
B9 | 0.225 | 
B10 | 3.29 | 
B11 | 0.37 | 
B12 | 1.94 | 87.1
B13 | 0.612 | 
B14 | 1 | 
B15 | 4.77 | 
B16 | 0.909 | 

Binder | EC50, cAMP [nM] | Emax, cAMP [%]
B17 | 0.691 | 
B18 | 0.205 | 
B19 | 0.223 | 
B20 | 0.154 | 
B21 | 9.18 | 
B22 | 0.384 | 
B23 | 0.273 | 
B24 | 0.194 | 
B25 | 0.538 | 
B26 | 0.429 | 
B27 | 0.536 | 
B28 | 1 | 
B29 | 0.18 | 
B30 | 0.14 | 
B31 | 0.821 | 
B32 | 2.27 | 

target: human glucagon receptor (human, UniProt P47871 26-477); assay: cell-based or functional assay

Binder | EC50, cAMP [nM]
B1 | > 9950
B2 | > 9950
B3 | > 9950
B4 | > 9950
B5 | > 9950
B6 | > 9950
B7 | > 9950
B8 | > 9950
B9 | > 9950
B10 | > 9950
B11 | > 9950
B12 | > 9950
B13 | > 9950
B14 | > 9950
B15 | > 9950
B16 | > 9950

Binder | EC50, cAMP [nM]
B17 | > 9950
B18 | > 9950
B19 | > 9950
B20 | > 9950
B21 | > 9950
B22 | > 9950
B23 | > 9950
B24 | > 9950
B25 | > 9950
B26 | > 9950
B27 | > 9950
B28 | > 9950
B29 | > 9950
B30 | > 9950
B31 | > 9950
B32 | > 9950
